According to the Immune Epitope Database (IEDB):

biological target: HLA-A*02:01; experiment: IEDB peptide-MHC binding, purified MHC/competitive/radioactivity; ≥ and ≤ were set here for values at or beyond the usual limits of such assays; details: source organism: Homo sapiens

| IC50 [µM] | Sequence |
| --- | --- |
| 0.06 | TLGTVILLV |

same assay, conditions: source organism: Human gammaherpesvirus 8

| Sequence | IC50 [µM] |
| --- | --- |
| ALIGTMCGI | 0.033 |
| ALIGTMCGIL | 0.416 |
| ATLGTVILL | 0.178 |
| FIALNLSFI | 0.078 |
| FKNSSNLFT | 0.064 |
| FLYVVCSLA | 0.004 |
| FVAVHPVDV | 0.019 |
| GALLPGNLV | 0.5 |
| HLDFWHHEV | 0.02 |
| ITATFTAPL | 0.038 |
| KLLGTWMFSV | 0.003 |
| LLGTWMFSV | 0.003 |
| QLASILGCVD | 0.312 |
| RIFYNILEI | 0.062 |
| RLGAIPPLV | 0.333 |
| RLSNRICFWA | 0.384 |
| RLYQASAVM | 0.277 |
| SLVTGFINFI | 0.238 |
| SVDFYQFRV | 0.312 |
| SVSDFDLRI | 0.416 |
